Reference: patent US20250361268A1, “NOVEL ANTI-INFLAMMATORY PEPTIDE AND USE THEREOF” (NOVACELL TECHNOLOGY INC., priority 2022, published 2025)

T1: FPR1 (UniProt P21462 1-350, limits assumed)
T1 sequence (looked up): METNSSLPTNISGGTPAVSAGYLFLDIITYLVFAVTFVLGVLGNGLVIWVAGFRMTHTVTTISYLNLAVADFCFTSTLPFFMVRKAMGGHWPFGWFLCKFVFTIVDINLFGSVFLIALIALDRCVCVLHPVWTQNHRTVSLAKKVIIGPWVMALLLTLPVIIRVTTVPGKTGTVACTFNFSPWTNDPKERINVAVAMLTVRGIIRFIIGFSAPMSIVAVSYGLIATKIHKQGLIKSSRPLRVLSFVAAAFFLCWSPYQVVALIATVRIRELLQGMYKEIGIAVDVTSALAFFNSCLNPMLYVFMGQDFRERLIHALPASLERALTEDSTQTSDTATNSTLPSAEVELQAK

T2: formyl peptide receptor 2 (FPR2) (UniProt P25090 1-351, limits assumed)
T2 sequence (looked up): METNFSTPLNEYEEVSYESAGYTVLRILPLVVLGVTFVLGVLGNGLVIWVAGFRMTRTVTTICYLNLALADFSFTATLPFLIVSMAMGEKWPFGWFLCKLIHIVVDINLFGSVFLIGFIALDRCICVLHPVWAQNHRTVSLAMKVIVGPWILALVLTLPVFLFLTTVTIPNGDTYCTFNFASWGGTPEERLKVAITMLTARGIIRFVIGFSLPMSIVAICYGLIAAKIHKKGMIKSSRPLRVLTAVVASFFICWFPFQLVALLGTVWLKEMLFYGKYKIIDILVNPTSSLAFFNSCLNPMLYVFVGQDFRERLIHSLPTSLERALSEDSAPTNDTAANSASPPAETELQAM

B1: peptide of SEQ ID NO 70 (peptide)
peptide: MKYKPM
HELM: PEPTIDE1{M.K.Y.K.P.[dM].[am]}$$$$V2.0; N-terminus assumed
SMILES: CSCC[C@H](N)C(=O)N[C@@H](CCCCN)C(=O)N[C@@H](Cc1ccc(O)cc1)C(=O)N[C@@H](CCCCN)C(=O)N1CCC[C@H]1C(=O)N[C@H](CCSC)C(N)=O
B2: peptide of SEQ ID NO 57 (peptide)
peptide: MRYKPM
HELM: PEPTIDE1{[CCCCCCCC(=O)[*:2]].M.R.Y.K.P.[dM].[am]}$$$$V2.0
SMILES: CCCCCCCC(=O)N[C@@H](CCSC)C(=O)N[C@@H](CCCNC(=N)N)C(=O)N[C@@H](Cc1ccc(O)cc1)C(=O)N[C@@H](CCCCN)C(=O)N1CCC[C@H]1C(=O)N[C@H](CCSC)C(N)=O
B3: peptide of SEQ ID NO 62 (peptide)
peptide: PMRYKPM
HELM: PEPTIDE1{P.M.R.Y.K.P.[dM].[am]}$$$$V2.0; N-terminus assumed
SMILES: CSCC[C@H](NC(=O)[C@@H]1CCCN1)C(=O)N[C@@H](CCCNC(=N)N)C(=O)N[C@@H](Cc1ccc(O)cc1)C(=O)N[C@@H](CCCCN)C(=O)N1CCC[C@H]1C(=O)N[C@H](CCSC)C(N)=O
B4: peptide of SEQ ID NO 64 (peptide)
peptide: PMRYKPM
HELM: PEPTIDE1{[CCCC(=O)[*:2]].P.M.R.Y.K.P.[dM].[am]}$$$$V2.0
SMILES: CCCC(=O)N1CCC[C@H]1C(=O)N[C@@H](CCSC)C(=O)N[C@@H](CCCNC(=N)N)C(=O)N[C@@H](Cc1ccc(O)cc1)C(=O)N[C@@H](CCCCN)C(=O)N1CCC[C@H]1C(=O)N[C@H](CCSC)C(N)=O
B5: peptide of SEQ ID NO 7 (peptide)
peptide: RMRYKVM
HELM: PEPTIDE1{[CCCC(=O)[*:2]].R.M.R.Y.K.V.[dM].[am]}$$$$V2.0
SMILES: CCCC(=O)N[C@@H](CCCNC(=N)N)C(=O)N[C@@H](CCSC)C(=O)N[C@@H](CCCNC(=N)N)C(=O)N[C@@H](Cc1ccc(O)cc1)C(=O)N[C@@H](CCCCN)C(=O)N[C@H](C(=O)N[C@H](CCSC)C(N)=O)C(C)C
B6: peptide of SEQ ID NO 65 (peptide)
peptide: PMRYKPM
HELM: PEPTIDE1{[CCCCCCCC(=O)[*:2]].P.M.R.Y.K.P.[dM].[am]}$$$$V2.0
SMILES: CCCCCCCC(=O)N1CCC[C@H]1C(=O)N[C@@H](CCSC)C(=O)N[C@@H](CCCNC(=N)N)C(=O)N[C@@H](Cc1ccc(O)cc1)C(=O)N[C@@H](CCCCN)C(=O)N1CCC[C@H]1C(=O)N[C@H](CCSC)C(N)=O
B7: peptide of SEQ ID NO 59 (peptide)
peptide: HMRYKPM
HELM: PEPTIDE1{[ac].H.M.R.Y.K.P.[dM].[am]}$$$$V2.0
SMILES: CSCC[C@H](NC(=O)[C@H](Cc1c[nH]cn1)NC(C)=O)C(=O)N[C@@H](CCCNC(=N)N)C(=O)N[C@@H](Cc1ccc(O)cc1)C(=O)N[C@@H](CCCCN)C(=O)N1CCC[C@H]1C(=O)N[C@H](CCSC)C(N)=O
B8: peptide of SEQ ID NO 55 (peptide)
peptide: MRYKPM
HELM: PEPTIDE1{[ac].M.R.Y.K.P.[dM].[am]}$$$$V2.0
SMILES: CSCC[C@H](NC(C)=O)C(=O)N[C@@H](CCCNC(=N)N)C(=O)N[C@@H](Cc1ccc(O)cc1)C(=O)N[C@@H](CCCCN)C(=O)N1CCC[C@H]1C(=O)N[C@H](CCSC)C(N)=O
B9: peptide of SEQ ID NO 60 (peptide)
peptide: HMRYKPM
HELM: PEPTIDE1{[CCCC(=O)[*:2]].H.M.R.Y.K.P.[dM].[am]}$$$$V2.0
SMILES: CCCC(=O)N[C@@H](Cc1c[nH]cn1)C(=O)N[C@@H](CCSC)C(=O)N[C@@H](CCCNC(=N)N)C(=O)N[C@@H](Cc1ccc(O)cc1)C(=O)N[C@@H](CCCCN)C(=O)N1CCC[C@H]1C(=O)N[C@H](CCSC)C(N)=O
B10: peptide of SEQ ID NO 53 (peptide)
peptide: RMRYKPM
HELM: PEPTIDE1{[CCCCCCCC(=O)[*:2]].R.M.R.Y.K.P.[dM].[am]}$$$$V2.0
SMILES: CCCCCCCC(=O)N[C@@H](CCCNC(=N)N)C(=O)N[C@@H](CCSC)C(=O)N[C@@H](CCCNC(=N)N)C(=O)N[C@@H](Cc1ccc(O)cc1)C(=O)N[C@@H](CCCCN)C(=O)N1CCC[C@H]1C(=O)N[C@H](CCSC)C(N)=O
B11: peptide of SEQ ID NO 63 (peptide)
peptide: PMRYKPM
HELM: PEPTIDE1{[ac].P.M.R.Y.K.P.[dM].[am]}$$$$V2.0
SMILES: CSCC[C@H](NC(=O)[C@@H]1CCCN1C(C)=O)C(=O)N[C@@H](CCCNC(=N)N)C(=O)N[C@@H](Cc1ccc(O)cc1)C(=O)N[C@@H](CCCCN)C(=O)N1CCC[C@H]1C(=O)N[C@H](CCSC)C(N)=O
B12: peptide of SEQ ID NO 54 (peptide)
peptide: MRYKPM
HELM: PEPTIDE1{M.R.Y.K.P.[dM].[am]}$$$$V2.0; N-terminus assumed
SMILES: CSCC[C@H](N)C(=O)N[C@@H](CCCNC(=N)N)C(=O)N[C@@H](Cc1ccc(O)cc1)C(=O)N[C@@H](CCCCN)C(=O)N1CCC[C@H]1C(=O)N[C@H](CCSC)C(N)=O
B13: peptide of SEQ ID NO 6 (peptide)
peptide: RMRYKVM
HELM: PEPTIDE1{[ac].R.M.R.Y.K.V.[dM].[am]}$$$$V2.0
SMILES: CSCC[C@H](NC(=O)[C@H](CCCNC(=N)N)NC(C)=O)C(=O)N[C@@H](CCCNC(=N)N)C(=O)N[C@@H](Cc1ccc(O)cc1)C(=O)N[C@@H](CCCCN)C(=O)N[C@H](C(=O)N[C@H](CCSC)C(N)=O)C(C)C
B14: peptide of SEQ ID NO 58 (peptide)
peptide: HMRYKPM
HELM: PEPTIDE1{H.M.R.Y.K.P.[dM].[am]}$$$$V2.0; N-terminus assumed
SMILES: CSCC[C@H](NC(=O)[C@@H](N)Cc1c[nH]cn1)C(=O)N[C@@H](CCCNC(=N)N)C(=O)N[C@@H](Cc1ccc(O)cc1)C(=O)N[C@@H](CCCCN)C(=O)N1CCC[C@H]1C(=O)N[C@H](CCSC)C(N)=O
B15: peptide of SEQ ID NO 74 (peptide)
peptide: RWRYKPM
HELM: PEPTIDE1{R.W.R.Y.K.P.[dM].[am]}$$$$V2.0; N-terminus assumed
SMILES: CSCC[C@@H](NC(=O)[C@@H]1CCCN1C(=O)[C@H](CCCCN)NC(=O)[C@H](Cc1ccc(O)cc1)NC(=O)[C@H](CCCNC(=N)N)NC(=O)[C@H](Cc1c[nH]c2ccccc12)NC(=O)[C@@H](N)CCCNC(=N)N)C(N)=O
B16: peptide of SEQ ID NO 61 (peptide)
peptide: HMRYKPM
HELM: PEPTIDE1{[CCCCCCCC(=O)[*:2]].H.M.R.Y.K.P.[dM].[am]}$$$$V2.0
SMILES: CCCCCCCC(=O)N[C@@H](Cc1c[nH]cn1)C(=O)N[C@@H](CCSC)C(=O)N[C@@H](CCCNC(=N)N)C(=O)N[C@@H](Cc1ccc(O)cc1)C(=O)N[C@@H](CCCCN)C(=O)N1CCC[C@H]1C(=O)N[C@H](CCSC)C(N)=O
B17: peptide of SEQ ID NO 67 (peptide)
peptide: KMKYKPM
HELM: PEPTIDE1{[ac].K.M.K.Y.K.P.[dM].[am]}$$$$V2.0
SMILES: CSCC[C@H](NC(=O)[C@H](CCCCN)NC(C)=O)C(=O)N[C@@H](CCCCN)C(=O)N[C@@H](Cc1ccc(O)cc1)C(=O)N[C@@H](CCCCN)C(=O)N1CCC[C@H]1C(=O)N[C@H](CCSC)C(N)=O
B18: peptide of SEQ ID NO 56 (peptide)
peptide: MRYKPM
HELM: PEPTIDE1{[CCCC(=O)[*:2]].M.R.Y.K.P.[dM].[am]}$$$$V2.0
SMILES: CCCC(=O)N[C@@H](CCSC)C(=O)N[C@@H](CCCNC(=N)N)C(=O)N[C@@H](Cc1ccc(O)cc1)C(=O)N[C@@H](CCCCN)C(=O)N1CCC[C@H]1C(=O)N[C@H](CCSC)C(N)=O
B19: peptide of SEQ ID NO 68 (peptide)
peptide: KMKYKPM
HELM: PEPTIDE1{[CCCC(=O)[*:2]].K.M.K.Y.K.P.[dM].[am]}$$$$V2.0
SMILES: CCCC(=O)N[C@@H](CCCCN)C(=O)N[C@@H](CCSC)C(=O)N[C@@H](CCCCN)C(=O)N[C@@H](Cc1ccc(O)cc1)C(=O)N[C@@H](CCCCN)C(=O)N1CCC[C@H]1C(=O)N[C@H](CCSC)C(N)=O

What follows are binders tested against T1, FPR1 (assay: cell-based or functional assay).

Row | Binder | EC50 for [Ca2+]
1 | B1 | > 10 µM
2 | B2 | > 10 µM
3 | B3 | > 10 µM
4 | B4 | > 10 µM
5 | B5 | > 10 µM
6 | B6 | > 10 µM
7 | B7 | > 10 µM
8 | B8 | > 10 µM
9 | B9 | > 10 µM
10 | B10 | > 10 µM
11 | B11 | > 10 µM
12 | B12 | > 10 µM
13 | B13 | > 10 µM
14 | B14 | > 10 µM
15 | B15 | > 10 µM
16 | B16 | > 10 µM
17 | B17 | > 10 µM
18 | B18 | > 10 µM
19 | B19 | > 10 µM

What follows are binders tested against T2, formyl peptide receptor 2 (FPR2) (assay: cell-based or functional assay).

Row | Binder | EC50 for [Ca2+]
20 | B1 | < 0.01 µM
21 | B2 | < 0.01 µM
22 | B3 | < 0.01 µM
23 | B4 | < 0.01 µM
24 | B5 | < 0.01 µM
25 | B6 | < 0.01 µM
26 | B7 | < 0.01 µM
27 | B8 | < 0.01 µM
28 | B9 | < 0.01 µM
29 | B10 | < 0.01 µM
30 | B11 | < 0.01 µM
31 | B12 | < 0.01 µM
32 | B13 | < 0.01 µM
33 | B14 | < 0.01 µM
34 | B15 | < 0.01 µM
35 | B16 | < 0.01 µM
36 | B17 | < 0.01 µM
37 | B18 | < 0.01 µM
38 | B19 | < 0.01 µM
